Here are results for 2 proteins from patent US20060216339.

Data set [1] addresses T1, BPDEtide, RKISASEFDRPLR (peptide B, type-I PKG peptide substrate).
T1 chain: RKISASEFDRPLR

For data set [2], the target named is T2, peptide A, RKISASGP (type-I PKG peptide substrate).
T2 chain: RKISASGP

The target of data set [3] is T3, peptide C, QKRPRRKDTP (type-II PKG substrate).
T3 chain: QKRPRRKDTP

For data set [4], the target named is T4, peptide D, RKRSRAE (H2Btide, type-I PKG peptide substrate).
T4 chain: RKRSRAE

Data set [5] has as its target purified recombinant VASP-GST (vasodilator-stimulated phosphoprotein with C-terminal GST epitope tag), P70460.
Data set [6] addresses recombinant mammalian ERK2 (MAPK p42 protein, bacterial recombinant, already containing phospho-tyrosine-185).

Sequence of recombinant mammalian ERK2 (MAPK p42 protein, bacterial recombinant, already containing phospho-tyrosine-185) (P28482 2-360): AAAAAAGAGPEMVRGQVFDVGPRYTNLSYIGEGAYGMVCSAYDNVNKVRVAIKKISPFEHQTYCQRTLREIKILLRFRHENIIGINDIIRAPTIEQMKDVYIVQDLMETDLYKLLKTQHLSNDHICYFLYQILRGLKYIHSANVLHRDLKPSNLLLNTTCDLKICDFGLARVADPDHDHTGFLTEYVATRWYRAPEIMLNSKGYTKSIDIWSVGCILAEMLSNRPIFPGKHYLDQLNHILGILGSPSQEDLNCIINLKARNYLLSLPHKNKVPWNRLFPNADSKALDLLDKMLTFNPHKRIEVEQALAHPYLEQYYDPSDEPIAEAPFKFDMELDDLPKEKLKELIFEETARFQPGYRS
Sequence of purified recombinant VASP-GST (vasodilator-stimulated phosphoprotein with C-terminal GST epitope tag), P70460 (P70460 whole entry): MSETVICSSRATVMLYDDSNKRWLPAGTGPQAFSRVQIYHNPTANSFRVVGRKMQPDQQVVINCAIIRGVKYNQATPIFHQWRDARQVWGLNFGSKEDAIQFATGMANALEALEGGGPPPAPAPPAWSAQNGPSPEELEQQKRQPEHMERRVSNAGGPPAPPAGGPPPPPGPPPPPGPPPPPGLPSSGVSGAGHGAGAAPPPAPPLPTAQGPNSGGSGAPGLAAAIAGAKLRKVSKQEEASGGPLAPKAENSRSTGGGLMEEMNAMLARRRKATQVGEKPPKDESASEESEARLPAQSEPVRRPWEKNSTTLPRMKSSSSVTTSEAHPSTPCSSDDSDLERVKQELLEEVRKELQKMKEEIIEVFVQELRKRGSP

B1: recombinant bovine PKG type-Iα (protein)
chain: MSELEEDFAKILMLKEERIKELEKRLSEKEEEIQELKRKLHKCQSVLPVPSTHIGPRTTRAQGISAEPQTYRSFHDLRQAFRKFTKSERSKDLIKEAILDNDFMKNLELSQIQEIVDCMYPVEYGKDSCIIKEGDVGSLVYVMEDGKVEVTKEGVKLCTMGPGKVFGELAILYNCTRTATVKTLVNVKLWAIDRQCFQTIMMRTGLIKHTEYMEFLKSVPTFQSLPEEILSKLADVLEETHYENGEYIIRQGARGDTFFIISKGKVNVTREDSPNEDPVFLRTLGKGDWFGEKALQGEDVRTANVIAAEAVTCLVIDRDSFKHLIGGLDDVSNKAYEDAEAKAKYEAEAAFFANLKLSDFNIIDTLGVGGFGRVELVQLKSEESKTFAMKILKKRHIVDTRQQEHIRSEKQIMQGAHSDFIVRLYRTFKDSKYLYMLMEACLGGELWTILRDRGSFEDSTTRFYTACVVEAFAYLHSKGIIYRDLKPENLILDHRGYAKLVDFGFAKKIGFGKKTWTFCGTPEYVAPEIILNKGHDISADYWSLGILMYELLTGSPPFSGPDPMKTYNIILRGIDMIEFPKKIAKNAANLIKKLCRDNPSERLGNLKNGVKDIQKHKWFEGFNWEGLRKGTLTPPIIPSVASPTDTSNFDSFPEDNDEPPPDDNSGWDIDF
As to B1, the “kinase activity on peptide substrates” value in data set [1] is reported as “both kinases readily phosphorylated several PKG peptide substrates”; in data set [2], “both kinases readily phosphorylated several PKG peptide substrates”; in data set [3], “neither kinase phosphorylated peptide C”; in data set [4], “both kinases readily phosphorylated several PKG peptide substrates”. The “phosphorylation of VASP at serine 239 (Western blot with anti-phospho-VASP (Ser 239))” value in data set [5] is “both the bovine and Aplysia kinases phosphorylated this site”.

B2: recombinant His-apPKG (Aplysia protein kinase G with N-terminal His tag, expressed in baculovirus/Sf9 cells) (protein)
chain: MGNGASSNTHFTIDGESMDVHKVKALVPELRHELRRRDKIIEQYDSQVRQKDELLKEKEAEIARLKEEVHKLKSVLQLKVDTLKAQESKPDLLSTIDENQAEPTAPRGPAKKQGVSGESPSSKTLGYVDLTHHEKDFKSKQLIKDAILSNEFIKVLAATQLREIIDCMYEKRVPKACYIIKGGERGEHLYVCADGLLEVHKEDKRLGEIKSGGLFGELAILYNCKRTASVKAVTHTTLWVLDRRVFQAIMMKTGLQRREENMAFLKSVPLLKNLPSDKLAKMSDVLEYDFFHENEYIIREGAAGDTFFILNKGEVKVTQKIAGHAEPKEVRRLKRGDYFGEKALLSEDRRTANVIALPPGVECLTVDRESFTQFVGDLNELRNKDYGDEARGAERRSGSDSTVSPVSERPVAKEFENCSLDDLQLVTTLGMGGFGRVELVQLSKEKGKTFALKCLKKKHIVETRQQEHIYSEKKIMMEADSPFITKLHKTFRDRKYVYMLMEVCLGGELWTILRDRGNFDDLTARFCVACVLEAFSYLHAKGIIYRDLKPENLLLDARGYVKLVDFGFAKKIGVGKKTWTFCGTPEYVAPEIILNKGHDHSADYWSLGILMYELLNGTPPFSGSDPMRTYNIILKGIDHIEFPKKISRSAHVLIKKLCRDNPMERLGYGKNGISDIRKNKWFQGFDWDGLMDLTLTPPIVPKVKNPTDTSNFDSYPRDMDIAADELSGWDIDF
As to B2, in data set [1], the “dual phosphorylation of ERK2 by apPKG in the presence of 1 µg of BPDEtide (Western blot with Ab^pTpYmapk)” value was “The activation was specific, because it was reduced in the presence of BPDEtide”; the “kinase activity (transfer of ^32P from [^32P]ATP to BPDEtide)” value is “Inactive apPKG was activated by 100 nM 8-Br-cGMP and readily phosphorylated BPDEtide”; the “kinase activity on peptide substrates” value is “both kinases readily phosphorylated several PKG peptide substrates”. Further, the “kinase activity on peptide substrates” value in data set [2] is listed as “both kinases readily phosphorylated several PKG peptide substrates”. Besides, the “kinase activity on peptide substrates” value in data set [3] was “neither kinase phosphorylated peptide C”. Moreover, the “kinase activity on peptide substrates” value in data set [4] is “both kinases readily phosphorylated several PKG peptide substrates”. For the same protein, the “phosphorylation of VASP at serine 239 (Western blot with anti-phospho-VASP (Ser 239))” value in data set [5] is “both the bovine and Aplysia kinases phosphorylated this site”. Besides, in data set [6], the “ERK2 activity (production of phospho-Elk1) compared with activation by MEK1” value is given as “apPKG produced an ERK2 with similar activity as that produced by MEK1”, the “activation of ERK2 (phosphorylation of Elk1 by ERK2 after incubation with apPKG)” value is reported as “apPKG activated ERK2 to phosphorylate Elk1”, the “phosphorylation of ERK2 at T183 (Western blot with antibody to ERKpT183)” value was “there was an increase in the phosphorylation of the -T- in the presence of apPKG” and the “phosphorylation of ERK2 at Y185 (Western blot with antibody to ERKpY185)” value is listed as “There was no increase in phosphorylation of the -Y- when ERK2 was incubated with apPKG”.
